From doi:10.1101/2023.12.04.569983

Columns and labels:
HP1α (untagged, wt) = assay: EMSA; conditions: 20 mM HEPES pH 7.5, 70 mM KCl, 1 mM DTT
HP1α-16aa-mEGFP = assay: EMSA; conditions: 20 mM HEPES pH 7.5, 70 mM KCl, 1 mM DTT

**Q.** For 187 bp DNA, which K half (HP1α (untagged, wt)) is on record?
**A.** 880 nM

**Q.** What about the K half (HP1α-16aa-mEGFP) of the same substance?
**A.** 580 nM
